The series deals with SRSF1-RBD (UniProt Q07955 1-203). In words: EMSA. In general terms: A gel shift assay detects complexes by their altered migration in electrophoresis.
Chain of SRSF1-RBD (Q07955 1-203): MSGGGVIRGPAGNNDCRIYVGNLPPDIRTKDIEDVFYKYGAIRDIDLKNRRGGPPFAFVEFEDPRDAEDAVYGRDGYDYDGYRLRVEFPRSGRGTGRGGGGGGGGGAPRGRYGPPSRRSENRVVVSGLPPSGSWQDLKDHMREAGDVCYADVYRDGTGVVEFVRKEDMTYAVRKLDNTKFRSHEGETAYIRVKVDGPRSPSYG

B1: AdML pre-mRNA (structured_RNA)
RNA: GAGCUCGGUACCCCGUUCGUCCUCACUCUCUUCCGCAUCGCUGUCUGCGAGGGCCAGCUGUUGGGGUGAGUACUCCCUCUCAAAAGCGGGCAUGACUUCUGCCCUCGAGUUAUUAACCCUCACUAAAGGCAGUAGUCAAGGGUUUCCUUGAAGCUUUCGUGCUGACCCUGUCCCUUUUUUUUCCACAGCUGCAGGUCGACGUUGAGGACAAACUCUUCGCGGUCUUUCCAGUACUCUU
B1: the binding result is listed as “binds”.
